For this assay, the target named is biotinylated DAE10 peptide (Aβ1-10 conjugated to biotin at the carboxy-terminus). Kind of assay: SPR; BIAcore; biotinylated DAE10 peptide (Aβ1-10) immobilised on streptavidin coated chips at low density (4 to 7 RU); whole antibodies injected in triplicate at 100 nM, 30 μl/minute; apparent rate constants, bivalent model, KD corrected for active concentration of antibody. (In general: Surface plasmon resonance follows binding to a sensor surface in real time, without labels.)

Usually koff stands for the rate constant with which the complex falls apart. By kon is commonly meant the second-order rate constant of association.

Positions count from the first letter of the chain named.

B1: Humanized 3D6 version 1 (antibody, V domains shown)
VH: EVQLLESGGGLVQPGGSLRLSCAASGFTFSNYGMSWVRQAPGKGLEWVASIRSGGGRTYYSDNVKGRFTISRDNAKNSLYLQMNSLRAEDTALYYCVRYDHYSGSSDYWGQGTLVTVSS
VL: YVVMTQSPLSLPVTPGEPASISCKSSQSLLDSDGKTYLNWLLQKPGQSPQRLIYLVSKLDSGVPDRFSGSGSGTDFTLKISRVEAEDVGVYYCWQGTHFPRTFGQGTKVEIK
Take B1: the Kd was 2.1 nM, the koff turned out to be 0.000399 s⁻¹ and the on-rate constant (kon) worked out at 189000 M⁻¹ s⁻¹.

B2: Bapineuzumab (humanized 3D6, version 2) (antibody, V domains shown)
VH: B1 VH with A75S, S78T, L93V
VL: B1 VL with Y1D
For B2, the Kd was found to be 2.8 nM, the koff worked out at 0.000423 s⁻¹ and the kon turned out to be 150000 M⁻¹ s⁻¹.

Values taken from paper PMC4095729.
